Legend:
[1] = biological target: T1, recombinant cynomolgus sc-uPA (cynomolgus monkey, UniProt P16227 29-433 (Papio cynocephalus entry)); test: SPR (Biacore T200), mAb immobilised, sc-uPA as analyte
T1 construct: The exact signal peptide is said not to be established; also called cyno pro-uPA; cyno pro-uPA-6xHis
Protocol: (§1) Affinities of the anti-uPA mAbs towards human and cynomolgus sc-uPA (SEQ ID NO: 1 and 3) were measured by SPR using a Biacore T200 instrument (GE Healthcare). These studies were performed using a direct binding procedure. […] Injection time was 60 sec., followed by 180 sec. dissociation. Regeneration was performed by injection of two short pulses of glycine-HCl pH 1.5.
(§2) The kinetic parameters (kₐ, kd and KD) for the interaction were calculated using a 1:1 interaction Langmuir fitting model.
(§3) Results are shown in Table 2 Association rate constant (ka) and Dissociation rate constant (kd) were measured. Equilibrium dissociation constant is calculated as KD=kd/ka.

recombinant human sc-uPA [2] = biological target: T2, recombinant human sc-uPA (human, UniProt P00749 21-431); test: as above
T2 construct: 411 amino acid single-chain zymogen expressed in HEK293; the 20-residue signal peptide is not present in the mature protein; also called human single-chain uPA; pro-uPA
Protocol: as §1, §2, §3

recombinant human sc-uPA [3] = biological target: T2, recombinant human sc-uPA; test: cell-based or functional assay
[4] = biological target: recombinant human tc-uPA (R&D Systems, #1310-SE) (human, UniProt P00749 21-178; P00749 179-431); test: cell-based or functional assay
recombinant human sc-uPA [5] = biological target: T2, recombinant human sc-uPA; test: cell-based or functional assay; remark: listed apart in the source
[6] = biological target: T1, recombinant cynomolgus sc-uPA; test: cell-based or functional assay
[7] = biological target: T1, recombinant cynomolgus sc-uPA; test: SPR (Biacore), mAb immobilised, sc-uPA as analyte, 25 C
Protocol: (§4) In order to compare with murine mAb, the binding profile to recombinant human sc-uPA protein (SEQ ID NO: 1) and cynomolgus sc-uPA (SEQ ID NO: 3) was measured by surface plasmon resonance (SPR).
(§5) The experiments were performed on a Biacore™ instrument (GE Healthcare) and analysed with the BIAcore 4000 Evaluation Software. […] Recombinant human sc-uPA and cynomolgus sc-uPA proteins were diluted in HBS-N (GE Healthcare Cat BR-1006-70) with 1% BSA buffer with a dilution factor 3× ranging 1000-0.13 nM. Recombinant human sc-uPA and cynomolgus sc-uPA proteins were injected for 60 s, followed by a 600 s dissociation phase. Binding curves were measured at 25° C. with a flow rate of 30 μL/min. Regeneration of the chip surface was performed with pH1.5 Glycine for 25 s at 30 μl/min. Determination of the kinetic parameters was performed by fitting with a 1:1 binding model. Kinetic parameters were calculated and are stated in Table 14 below.

recombinant human sc-uPA [8] = biological target: T2, recombinant human sc-uPA; test: as above
Protocol: as §4, §5

[9] = biological target: endogenously derived human uPA (primary human M1/M2 macrophages; human neutrophil granulocytes) (human, UniProt P00749 21-431); test: cell-based or functional assay

Row | Binder | Kd [1] [nM] | koff [1] [s⁻¹] | kon [1] [M⁻¹ s⁻¹] | Kd (recombinant human sc-uPA [2]) [nM] | koff (recombinant human sc-uPA [2]) [s⁻¹] | kon (recombinant human sc-uPA [2]) [M⁻¹ s⁻¹] | IC50, coupled zymogen activation assay, sc-uPA immobilized on uPAR of U937 cells (recombinant human sc-uPA [3]) [nM] | IC50, tc-uPA catalytic assay (Ex. 7) [4] [nM] | IC50, coupled zymogen activation assay (Ex. 5) (recombinant human sc-uPA [5]) [nM] | IC50, sc-uPA activation assay (Ex. 8) (recombinant human sc-uPA [5]) [nM] | IC50, coupled zymogen activation assay with cynomolgus sc-uPA [6] [nM] | Kd [7] [nM] | koff [7] [s⁻¹] | kon [7] [M⁻¹ s⁻¹] | Kd (recombinant human sc-uPA [8]) [nM] | koff (recombinant human sc-uPA [8]) [s⁻¹] | kon (recombinant human sc-uPA [8]) [M⁻¹ s⁻¹] | IC50, plasmin generation by human M1/M2 macrophages [9] [nM]
1 | 0266-0000-0015 (antibody, IgG1, V domains shown, also called hybridoma m-uPA-1F58A1) VH: QIQLVQSGPELKKPGETVRISCKASGYTFTDYGMNWIKQTPGKGLKWMGWINTYSGEPTYSDEFKGRFAFSLETSASTASLQINNLKNEDMATYFCARDFDDYDSSRYFDVWGAGTTVTVSS VL: DIVMSQSPSSLGVSVGEKLTMTCKSSQSLLYSSYQKNFLAWYQQKPGQSPKLLISWASTRDSGVPDRFTGSGSGTDFTLTISSVKAEDLAVYYCQQYYIYPPTFGGGTKLEIK | 5.32 | 0.00717 | 1.35e+06 | 0.37 | 0.000381 | 1.03e+06 | < 0.7 | 100 | < 0.7 | 3 | – | – | – | – | – | – | – | –
2 | 0266-0000-0010 (antibody, IgG1, V domains shown) VH: DVKLVESGGGLVKPGGSLKLSCVASGFTFSSYTMSWVRQTPEKRLEWVATISGGGSHIYYADSVKGRFTISRDNAKNTLYLQMSSLKSEDTAIYYCTRDGRDGSWFAYWGQGTLVTVSA VL: DIVMTQSPATLSVTPGDRVSLSCRTSQSIGDYLHWYQQKSHESPRLLIKYVSQSISGIPSRFSGSGSGSDFTLSINSVESEDVGVYYCQNSHSFPLTFGSGTKLELK | 0.121 | 5.74e-05 | 473000 | 1.02 | 0.000345 | 340000 | < 0.7 | 113 | < 0.7 | 5 | 0.9 | – | – | – | – | – | – | –
3 | 0266-0000-0043 (antibody, human IgG4 S228P, kappa, V domains shown, also called rec0266-0000-0043) VH: DVKLVESGGGLVKPGGSLRLSCAASGFTFSSYTMSWVRQAPGKGLEWVATISGGGSHIYYADSVKGRFTISRDNAKNSLYLQMNSLRAEDTAVYYCTRDGRDGSWFAYWGQGTLVTVSS VL: DIVMTQSPAFLSVTPGEKVTISCRTSQSIGDYLHWYQQKPDQSPKLLIKYVSQSISGIPSRFSGSGSGSDFTFTISSLEAEDAATYYCQNSHSFPLTFGGGTKVEIKR | – | – | – | – | – | – | < 0.7 | – | – | – | – | 0.112 | 0.000164 | 1.46e+06 | 1.78 | 0.0009 | 506000 | 2.1

Reference: patent US20160159924A1 (Novo Nordisk, published 2016)
